Patent publication US20230279105A1 (SINGLE CELL TECHNOLOGY, published 2023)

target: T1, Human TIM-3 Human Fc tagged protein (human, fluorescently labeled with HiLyte Fluor 555 (sites not given)); experiment: capture slide probed with labeled TIM-3-Fc;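 further: IgG from single CD138-enriched plasma cells, isolated from lymphocytes, immobilized on a derivatized glass slide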
T1 construct: Bought construct; also called TIM-3 protein tagged with human Fc; ACROBiosystems catalog no: TM3-H5258

Row | binding result | Binder
1 | binds | SCT-Fa014 (antibody, V domains shown, murine IgG) VH: EVKLVESEGGLVQPGSSMKLSCTASGFTFSDYYMAWVRQVPEKGLEWVAHINFDGSGTYYLDSLKSRFIISRDNAKNILYLQLSSLKSEDTGTYYCARLYDGSHDYWGQGTTLTVSS VL: not shown
2 | binds | SCT-Fa016 (antibody, V domains shown, murine IgG) VH: EVKLVESEGGLVQPGSSMKLSCTASGFTFSDYYMAWVRQVPEKGLEWVAHINFDGSGTYYLDSLKSRFIISRDNTKNILYLQLSSLKSEDTATYYCARLYDGSHDYWGQGTTLTVSS VL: not shown
3 | binds | SCT-Fa017 (antibody, V domains shown, murine IgG) VH: EVKLVESEGGLVQPGSSMKLSCTASGFTFSDYYMAWVRQVPEKGLEWVANINFDGSGTYYLDSLKSRFIISRDNAKNILYLQMSSLKSEDTATYYCARLYDGSHDYWGQGTTLTVSS VL: not shown
4 | binds | SCT-Fa011 (antibody, V domains shown, murine IgG) VH: EVKLVESEGGLVQPGSSMKLSCTASGFTFSDYYMAWVRQVPEKGLEWVAHINFDGSGTYYLDSLKSRFIISRDNAKNILYLQLSSLKSEDTATYYCARLYDGSHDYWGQGTTLTVSS VL: not shown
5 | binds | SCT-Fa013 (antibody, V domains shown, murine IgG) VH: EVKLVESEGGLVQPGSSMKLSCTASGFTFSDYYMAWVRQVPEKGLEWVAHINFDGSGTYYLDSLKSRFIISRDNAKNILYLQLSSLKSEDTGTYYCARLYDGSHDYWGQGTTLTVSS VL: not shown
6 | binds | SCT-Fa019 (antibody, V domains shown, murine IgG) VH: EVKLVESEGGLVQPGSSMKLSCTASGFTFSDYYMSWVRQVPEKGLEWVANINFDGSGTYYLDSLKSRFIISRDNAKNILYLQMSSLRSEDTATYYCARLYDGSHDYWGQGSALTVSS VL: not shown
7 | binds | SCT-Fa015 (antibody, V domains shown, murine IgG) VH: EVKLVESEGGLVQPGSSMKLSCTASGFTFSDYYMAWVRQVPEKGLEWVAHINFDGSGTYYLDSLKSRFIISRDNEKSILYLQLSSLKSEDTATYYCARLYDGSHDYWGQGTTLTVSS VL: not shown
8 | binds | SCT-Fa010 (antibody, V domains shown, murine IgG) VH: EVKLVESEGGLVQPGSSMKLSCTASGFTFSDYYMAWVRQVPEKGLEWIANINFDGSGTYYLDSLKSRFIISRDNAKNILYLQMSSLKSEDTATYYCARLYDGSLDYWGQGTTLTVSS VL: not shown

The next lines start with the binder.

Row | Binder | binding result
9 | SCT-Fa107 (antibody, V domains shown, murine IgG) VH: QVQLKQSGAELVRPGTSVKLSCKASGYTLTDYYINWVKQRPGQGLEWIARIYPGNGNTYYNEKFKGKATLTAEKSSSTVNMQVSSLTSEDSAVYFCARGGSSDRIYYYAMDYWGQGTSVTVSS VL: DIQMNQSPSSLSASLGDTITITCHASQNINVWLSWYQQKPGNIPKLLIYKASNLHTGVPSRFSGSGSGTGFTLTISSLQPEDIATYYCQQGQSYPLTFGSGTKLEIK | binds
10 | SCT-Fa102 (antibody, V domains shown, murine IgG) VH: QVQLKQSGAELVRPGTSVKLSCKASGYTLNDYYINWVKQRPGQGLEWIARIYPGNNNTYYNEKFKGKATLTAEKSSNTAYMQVSSLTSEDSAVYFCARGGSSVRVYYYAMDYWGQGTSVTVSS VL: DIQMNQSPSSLSASLGDTITITCHASQNINVWLSWYQQKPGNIPKLLIYKASNLHTGVPSRFSGSGSGTGFTLTISSLQPEDIATYYCQQGQSYPLTFGSGTKLEIK | binds
11 | SCT-Fa103 (antibody, V domains shown, murine IgG) VH: QVQLKQSGAELVRPGTSVKLSCKASGYTLTDYYINWVKQRPGQGLEWIARIYPGNGNTLYNAKFEGKATLTAERSSSTAYMQVSSLTSEDSAVYFCARGGSSVRVYYYAMDFWGQGTSVTVSS VL: DIQMNQSPSSLSASLGDTITITCHASQNINVWLSWYQQKPGNIPKLLIYKASNLHTGVPSRFSGSGSGTGFTLTISSLQPEDIATYYCQQGQSYPLTFGSGTKLEIK | binds
12 | SCT-Fa104 (antibody, V domains shown, murine IgG) VH: QVQLKQSGAELVRPGTSVKLSCKASGYTLTDYYINWVKQRPGQGLEWIARIYPGNGNTYYNEKFKCKATLTAEKSSSTVNMQVTSLTSEDSAIYFCARGGSSDRIYYYAMDYWGQGTSVTVSS VL: DIQMNQSPSSLSASLGDTITITCHASQNINVWLSWYQQKPGNIPKLLIYKASNLHTGVPSRFSGSGSGTGFTLTISSLQPEDIATYYCQQGQSYPLTFGSGTKLEVK | binds
13 | SCT-Fa097 (antibody, V domains shown, murine IgG) VH: QVQLKQSGAELVRPGTSVKLSCKASGYILTDYYINWVKQRPGQGLEWIARIYPGNGNTYYNEKFKGKATLTAEKSSSTVNMQVSSLTSEDSAVYFCARGGSSDRIYYYAMDHWGQGTSVTVSS VL: DIQMNQSPSSLSASLGDTINITCHASQNINVWLSWYQQKPGNIPKLLIYKASNLHTGVPLRFSGSGSGTGFTLTISSLQPEDIATYYCQQGQSYPLTFGSGTKLEIK | binds
14 | SCT-Fa098 (antibody, V domains shown, murine IgG) VH: QVQLKQSGAELVRPGTSVKLSCKASGYILTDYYINWVKQRPGQGLEWIARIYPGNGNTYYNEKFKGKATLTAEKSSSTVNMQVSSLTSEDSAVYFCARGGSSDRIYYYAMDYWGQGTSVTVSS VL: DIQMNQSPSSLSASLGDTITITCHASQNINVWLSWYQQKPGNIPKLLIYKASNLHTGVPSRFSGSGSGTGFTLAISSLQPEDIATYYCQQGQSYPLTFGSGTKLALK | binds
15 | SCT-Fa100 (antibody, V domains shown, murine IgG) VH: QVQLKQSGAELVRPGTSVKLSCKASGYTLIDYYINWVKQRPGQGLEWIARIYPGNGNTYYNEKFKGKATLTAEKSSSTVNMQVSSLTSEDSAVYFCARGGSSDRIYYFAMDYWGQGTSVTVSS VL: DIQMNQSPSSLSASLGDTITITCHASQNINVWLSWYQQKPGNIPKLLIYKASNLHTGVPSRFSGSGSGTGFTLTISSLQPEDIATYYCQQGQSYPLTFGSGTKLEIK | binds
16 | SCT-Fa099 (antibody, V domains shown, murine IgG) VH: QVQLKQSGAELVRPGTSVKLSCKASGYILTDYYINWVKQRPGQGLEWIARIYPGNGNTYYNEKFKGKATLTAEKSSSTVNMQVSSLTSEDSAVYFCARGGSSDRIYYYAMDYWGQGTSVTVSS VL: DIQMNQSPSSLSASLGDTITITCHASQNINVWLSWYQQKPGNIPKLLIYKASNLHTGVPSRFSGSGSGTGFTLTISSLQPEDIATYYCQQGQSYPLTFGSGTKLEIK | binds
17 | SCT-Fa101 (antibody, V domains shown, murine IgG) VH: QVQLKQSGAELVRPGTSVKLSCKASGYTLIDYYINWVKQRPGQGLEWIARIYPGNGNTYYNEKFKGKATLTAEKSSSTVNMQVSSLTSEDSAVYFCARGGSSDRIYYYAMDYWGQGTSVTVSS VL: DIQMNQSPSSLSASLGDTITITCHASQNINVWLSWYQQKPGNIPKLLIYKASNLHTGVPSRFSGSGSGTGFTLTISSLQPEDIATYYCQQGQSYPLTFGSGTKLEIK | binds
18 | SCT-Fa093 (antibody, V domains shown, murine IgG) VH: QVHLKQSGAELVRPGTSVKLSCKASGYTLTDYYINWVKQRPGQGLEWIARIYPGNGNTYYNEKFKGKATLTAEKSSSTVNMQVSSLTSEDSAVYFCARGGSSDRIYYYAMDYWGQGTSVTVSS VL: DIQMNQSPSSLSASLGDTITITCHASQNINVWLSWYQQKPGNIPKLLIYKASNLHTGVPSRFSGSGSGTGFTLTISSLQPEDIATYYCQQGQSYPLTFGSGTKLEIK | binds
19 | SCT-Fa012 (antibody, V domains shown, murine IgG) VH: EVKLVESEGGLVQPGSSMKLSCTASGFTFSDYYMAWVRQVPEKGLEWVAHINFDGSGTYYLDSLKSRFIISRDNAKNILYLQLSSLKSEDTATYYCARLYDGSHDYWGQGTTLTVSS VL: not shown | binds
